Laboratory results as given in patent publication US12186374B2 (Sanofi-Aventis Deutschland GmbH, priority 2014, dated 2025).

System: patients with T2DM
Assay: Treatment-emergent adverse events incl. serious, fatal, leading to discontinuation (Example 3)
[1] = PT ≥3% in any treatment group, Safety population

Gly(A21)-Arg(B31)-Arg(B32)-human insulin [Insulin Glargine]
Diarrhoea, % of patients (Example 3): 2.7% | Incidence of gastrointestinal disorder (System organ class) events (Example 3): 7.9% | Nasopharyngitis, % of patients (Example 3): 8.8% | Nausea, % of patients (Example 3): 0.5% | Patients discontinuing due to nausea, number (Example 3): none | Patients reporting treatment-emergent adverse events, % (Example 3): 52.3% | Patients reporting treatment-emergent adverse events, number (Example 3): 191 patients | Patients who withdrew from treatment due to TEAEs, % (Example 3): 0.8% | Patients who withdrew from treatment due to TEAEs, number (Example 3): 3 patients | Patients with at least 1 TEAE leading to death (Example 3): 2 patients | Serious TEAEs, % of patients (Example 3): 4.9% | Serious TEAEs, number of patients (Example 3): 18 patients | Vomiting, % of patients (Example 3): 0.5% | Common TEAE, PT Diarrhoea, number of patients [1]: 10 n | Common TEAE, PT Diarrhoea, percentage of patients [1]: (2.7%) | Common TEAE, PT Headache, number of patients [1]: 10 n | Common TEAE, PT Headache, percentage of patients [1]: (2.7%) | Common TEAE, PT Influenza, number of patients [1]: 11 n | Common TEAE, PT Influenza, percentage of patients [1]: (3.0%) | Common TEAE, PT Nasopharyngitis, number of patients [1]: 32 n | Common TEAE, PT Nasopharyngitis, percentage of patients [1]: (8.8%) | Common TEAE, PT Nausea, number of patients [1]: 2 n | Common TEAE, PT Nausea, percentage of patients [1]: (0.5%) | Common TEAE, PT Upper respiratory tract infection, number of patients [1]: 11 n | Common TEAE, PT Upper respiratory tract infection, percentage of patients [1]: (3.0%) | Common TEAE, PT Vomiting, number of patients [1]: 2 n | Common TEAE, PT Vomiting, percentage of patients [1]: (0.5%) | Common TEAE, SOC Gastrointestinal disorders, number of patients [1]: 29 n | Common TEAE, SOC Gastrointestinal disorders, percentage of patients [1]: (7.9%) | Common TEAE, SOC Infections and infestations, number of patients [1]: 112 n | Common TEAE, SOC Infections and infestations, percentage of patients [1]: (30.7%) | Common TEAE, SOC Nervous system disorders, number of patients [1]: 19 n | Common TEAE, SOC Nervous system disorders, percentage of patients [1]: (5.2%) | % of patients experiencing TEAE(s) leading to permanent treatment discontinuation: Cardiopulmonary failure (PT, Safety population): (0.3%) | % of patients experiencing TEAE(s) leading to permanent treatment discontinuation: Gallbladder cancer (PT, Safety population): (0.3%) | % of patients experiencing TEAE(s) leading to permanent treatment discontinuation: Pregnancy (PT, Safety population): (0.3%) | % of patients experiencing serious TEAE(s): Benign prostatic hyperplasia (PT, Safety population): (0.3%) | % of patients experiencing serious TEAE(s): Cardiac failure congestive (PT, Safety population): (0.3%) | % of patients experiencing serious TEAE(s): Cardiopulmonary failure (PT, Safety population): (0.3%) | % of patients experiencing serious TEAE(s): Chest discomfort (PT, Safety population): (0.3%) | % of patients experiencing serious TEAE(s): Cholecystitis acute (PT, Safety population): (0.3%) | % of patients experiencing serious TEAE(s): Gallbladder cancer (PT, Safety population): (0.3%) | % of patients experiencing serious TEAE(s): Glaucoma (PT, Safety population): (0.3%) | % of patients experiencing serious TEAE(s): Hypertension (PT, Safety population): (0.3%) | % of patients experiencing serious TEAE(s): Hypoglycaemia (PT, Safety population): (0.3%) | % of patients experiencing serious TEAE(s): Intervertebral disc protrusion (PT, Safety population): (0.3%) | % of patients experiencing serious TEAE(s): Kaposi’s sarcoma (PT, Safety population): (0.3%) | % of patients experiencing serious TEAE(s): Meniscus injury (PT, Safety population): (0.3%) | % of patients experiencing serious TEAE(s): Non-cardiac chest pain (PT, Safety population): (0.3%) | % of patients experiencing serious TEAE(s): Osteomyelitis (PT, Safety population): (0.3%) | % of patients experiencing serious TEAE(s): Pneumonia (PT, Safety population): (0.3%) | % of patients experiencing serious TEAE(s): Renal impairment (PT, Safety population): (0.3%) | % of patients experiencing serious TEAE(s): Wound infection (PT, Safety population): (0.3%) | Number of patients experiencing TEAE(s) leading to permanent treatment discontinuation: Angina unstable (PT, Safety population): 0 | Number of patients experiencing TEAE(s) leading to permanent treatment discontinuation: Benign gastric neoplasm (PT, Safety population): 0 | Number of patients experiencing TEAE(s) leading to permanent treatment discontinuation: Cardiopulmonary failure (PT, Safety population): 1 | Number of patients experiencing TEAE(s) leading to permanent treatment discontinuation: Dizziness (PT, Safety population): 0 | Number of patients experiencing TEAE(s) leading to permanent treatment discontinuation: Gallbladder cancer (PT, Safety population): 1 | Number of patients experiencing TEAE(s) leading to permanent treatment discontinuation: Hypoglycaemic unconsciousness (PT, Safety population): 0 | Number of patients experiencing TEAE(s) leading to permanent treatment discontinuation: Nausea (PT, Safety population): 0 | Number of patients experiencing TEAE(s) leading to permanent treatment discontinuation: Pneumonia (PT, Safety population): 0 | Number of patients experiencing TEAE(s) leading to permanent treatment discontinuation: Pregnancy (PT, Safety population): 1 | Number of patients experiencing TEAE(s) leading to permanent treatment discontinuation: Weight increased (PT, Safety population): 0 | Number of patients experiencing serious TEAE(s): Acute myocardial infarction (PT, Safety population): 0 | Number of patients experiencing serious TEAE(s): Angina unstable (PT, Safety population): 0 | Number of patients experiencing serious TEAE(s): Arteriosclerosis coronary artery (PT, Safety population): 0 | Number of patients experiencing serious TEAE(s): Benign breast neoplasm (PT, Safety population): 0 | Number of patients experiencing serious TEAE(s): Benign gastric neoplasm (PT, Safety population): 0 | Number of patients experiencing serious TEAE(s): Benign prostatic hyperplasia (PT, Safety population): 1 | Number of patients experiencing serious TEAE(s): Breast cancer (PT, Safety population): 0 | Number of patients experiencing serious TEAE(s): Cardiac failure congestive (PT, Safety population): 1 | Number of patients experiencing serious TEAE(s): Cardiopulmonary failure (PT, Safety population): 1 | Number of patients experiencing serious TEAE(s): Chest discomfort (PT, Safety population): 1
